The values that follow come from article PMC5431157.

Test [1] concerns the target human thrombin (human) (UniProt P00734). Nature of the test: enzyme inhibition kinetics (chromogenic substrate S-2238); 0.1 nM thrombin added to sculptin (0-80 pM) and S-2238 at different concentrations; 50 mM phosphate, 150 mM NaCl, 0.1% PEG 6000, pH 7.4, 37 °C; Hanes-Woolf plot, intercepts against inhibitor concentration, confirmed by non-linear regression for competitive inhibition.

Test [2] has the same target. The experiment in a line: enzyme inhibition kinetics (chromogenic substrate S-2238); 100 pM thrombin, 15 µM S-2238, sculptin 0-50 pM; 50 mM phosphate, 150 mM NaCl, 0.1% PEG 6000, pH 7.4, 37 °C; progress curves, kobs against sculptin concentration gives kon and koff; Ki = koff/kon.
The target is the same in test [3]. Nature of the test: enzyme inhibition kinetics (chromogenic substrate S-2238); 0.1 nM thrombin, 15 µM S-2238, sculptin 0-500 pM; 50 mM phosphate, 150 mM NaCl, 0.1% PEG 6000, pH 7.4, 37 °C; fractional steady-state velocities fitted to Morrison's tight binding equation.
Test [4] has the same target.
The target is the same in test [5]. The source holds these as a separate data set.

pKi: −log10 of the molar value.

Usually pKi stands for the negative decadic logarithm of the Ki, by convention in mol/L. Low values mean a large Ki, high ones a small Ki. One may read the koff as the first-order rate constant of dissociation. By kon is commonly meant a measure of how fast the partners come together. Read a low kon as slow association.

As for recombinant sculptin (natural protein), in the test with human thrombin (human) [1], the negative logarithm of the Ki (pKi) was 10.74. Further, in the test with human thrombin (human) [2], the pKi is 10.79, the koff is 0.00065 s⁻¹ and the kon was found to be 4.04e+07 M⁻¹ s⁻¹. The substance further showed a negative-log Ki (pKi) with human thrombin (human) [3] of 10.71. In the test with human thrombin (human) [4], this substance returned an IC50 of inhibition of thrombin (0.1 nM) hydrolysis of 15 µM S-2238, dose-response fit of 0.0866 nM. The same substance displayed a residual activity of thrombin (100 pM, chromogenic substrate) with 1 nM sculptin, 6 h at 37 °C with human thrombin (human) [5] of 97%.
